# Measurements published in US20240409645A1 (DUALYX, published 2024).
# Molecular target: T1, human IL-2 receptor (IL-2Rα/IL-2Rβ/γc) (human, UniProt P01589 22-272; P14784 27-551; P31785 23-369)
# T1 sequence 1: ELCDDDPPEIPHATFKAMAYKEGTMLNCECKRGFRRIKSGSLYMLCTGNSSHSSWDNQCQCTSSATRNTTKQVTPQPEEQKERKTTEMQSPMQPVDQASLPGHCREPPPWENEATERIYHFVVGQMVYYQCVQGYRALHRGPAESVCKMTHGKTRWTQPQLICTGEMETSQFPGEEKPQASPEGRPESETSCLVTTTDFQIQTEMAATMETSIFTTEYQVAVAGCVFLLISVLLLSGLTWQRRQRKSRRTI
# T1 sequence 2: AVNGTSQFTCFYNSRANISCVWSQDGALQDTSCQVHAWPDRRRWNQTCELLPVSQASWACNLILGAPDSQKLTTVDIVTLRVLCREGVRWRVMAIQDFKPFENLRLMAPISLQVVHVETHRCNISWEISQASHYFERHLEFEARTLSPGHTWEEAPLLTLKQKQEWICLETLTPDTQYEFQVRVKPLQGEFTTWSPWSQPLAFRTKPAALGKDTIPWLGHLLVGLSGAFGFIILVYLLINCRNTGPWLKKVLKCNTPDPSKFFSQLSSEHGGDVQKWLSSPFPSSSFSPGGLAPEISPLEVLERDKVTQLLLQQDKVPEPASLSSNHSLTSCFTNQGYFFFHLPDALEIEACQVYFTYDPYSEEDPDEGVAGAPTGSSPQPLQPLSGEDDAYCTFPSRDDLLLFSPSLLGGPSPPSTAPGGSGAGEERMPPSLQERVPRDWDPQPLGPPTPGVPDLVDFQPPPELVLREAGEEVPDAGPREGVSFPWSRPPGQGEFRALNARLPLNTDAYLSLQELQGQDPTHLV
# T1 sequence 3: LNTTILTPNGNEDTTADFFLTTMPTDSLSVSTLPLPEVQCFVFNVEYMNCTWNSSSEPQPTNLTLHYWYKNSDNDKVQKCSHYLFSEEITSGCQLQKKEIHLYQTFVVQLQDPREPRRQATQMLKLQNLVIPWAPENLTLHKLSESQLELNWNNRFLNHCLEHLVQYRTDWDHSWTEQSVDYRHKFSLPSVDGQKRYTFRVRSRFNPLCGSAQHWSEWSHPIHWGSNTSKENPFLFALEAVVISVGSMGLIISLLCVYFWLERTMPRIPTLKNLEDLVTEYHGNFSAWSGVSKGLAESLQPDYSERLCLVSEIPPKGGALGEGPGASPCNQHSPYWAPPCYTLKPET
# Assay: cell-based or functional assay
Binder,"EC50 (nM) pSTAT5, NK, human PBMCs [nM]","EC50 (nM) pSTAT5, Treg, human PBMCs [pM]",Fold Max signal (% pSTAT5+) Treg/NK [fold],"Max signal (% pSTAT5+), NK [% pSTAT5+]","Max signal (% pSTAT5+), Treg [% pSTAT5+]",fold EC50 NK/Treg [fold]
DC00078 (other) chain 1: QVQLVESGGGLVQAGGSLRLSCAASGIPFDNYAMGWFRQAPGKEREFVAARDLEGIITRYGDSVKGRFTISRGNAKNTVFLQMNSLKPEDTAVYYCAARDGGVVAGSRSSAQYNYWGQGTQVTVSSDKTHTCPPCPAPEAAGGPSVFLFPPKPKDTLMISRTPEVTCVVVDVSHEDPEVKFNWYVDGVEVHNAKTKPREEQYNSTYRVVSVLTVLHQDWLNGKEYKCKVSNKALGAPIEKTISKAKGQPREPQVYTLPPSRDELTKNQVSLTCLVKGFYPSDIAVEWESNGQPENNYKTTPPVLDSDGSFLLYSKLTVDKSRWQQGNVFSCSVMHEALHNHYTQKSLSLSPGK chain 2: QVQLVESGGGLVQAGGSLTLSCAAPGRTFGTDVVGWFRQAPGKEREFVASISRSGDGIYYDDSVKGRFTISRNNAWNTVNLQMNSLKVEDTAVYYCAAGDGWSTYDYWGQGTQVTVSSGGGGSGGGGSGGGGSEVQLVESGGGLVQTGGSLRLSCAASGGTFSRDAMAWFRQVPGKEREFVALISWSGATTNYADSVKGRFAISRDNGKNTVYLQMNRLKPADTAIYYCAADRRPMGSRSYFEPTEYDDWGQGTQVTVSSGGGGSGGGGSGGGGSQVQLVESGGGLVQPGGSLRLSCATSGFTFRNNFMSWVRQAPGKGLEWVSTISYGGESTTYAESVKGRFTISRDNAKNTLYLQMNNLKPEDTAVYYCAKATSYDSIRSGSRGQGTQVTVSSDKTHTCPPCPAPEAAGGPSVFLFPPKPKDTLMISRTPEVTCVVVDVSHEDPEVKFNWYVDGVEVHNAKTKPREEQYNSTYRVVSVLTVLHQDWLNGKEYKCKVSNKALGAPIEKTISKAKGQPREPQVYTLPPSRDELTKNQVSLTCLVKGFYPSDIAVEWESNGQPENNYKTTPPVLDSDGSFFLYSRLTVDKSRWQQGNVFSCSVMHEALHNHYTQKSLSLSPGK,0.195,< 0.1,5,14.1,67.8,> 1950
DC00079 (other) chain 1: QVQLVESGGGLVQAGGSLRLSCAASGIPFDNYAMGWFRQAPGKEREFVAARDLEGIITRYGDSVKGRFTISRGNAKNTVFLQMNSLKPEDTAVYYCAARDGGVVAGSRSSAQYNYWGQGTQVTVSSDKTHTCPPCPAPEAAGGPSVFLFPPKPKDTLMISRTPEVTCVVVDVSHEDPEVKFNWYVDGVEVHNAKTKPREEQYNSTYRVVSVLTVLHQDWLNGKEYKCKVSNKALGAPIEKTISKAKGQPREPQVYTLPPSRDELTKNQVSLTCLVKGFYPSDIAVEWESNGQPENNYKTTPPVLDSDGSFLLYSKLTVDKSRWQQGNVFSCSVMHEALHNHYTQKSLSLSPGK chain 2: QVQLVESGGGLVQAGGSLTLSCAAPGRTFGTDVVGWFRQAPGKEREFVASISRSGDGIYYDDSVKGRFTISRNNAWNTVNLQMNSLKVEDTAVYYCAAGDGWSTYDYWGQGTQVTVSSGGGGSGGGGSGGGGSQVQLVESGGGLVQPGGSLRLSCATSGFTFRNNFMSWVRQAPGKGLEWVSTISYGGESTTYAESVKGRFTISRDNAKNTLYLQMNNLKPEDTAVYYCAKATSYDSIRSGSRGQGTQVTVSSGGGGSGGGGSGGGGSEVQLVESGGGLVQTGGSLRLSCAASGGTFSRDAMAWFRQVPGKEREFVALISWSGATTNYADSVKGRFAISRDNGKNTVYLQMNRLKPADTAIYYCAADRRPMGSRSYFEPTEYDDWGQGTQVTVSSGGGGSGGGGSGGGGSDKTHTCPPCPAPEAAGGPSVFLFPPKPKDTLMISRTPEVTCVVVDVSHEDPEVKFNWYVDGVEVHNAKTKPREEQYNSTYRVVSVLTVLHQDWLNGKEYKCKVSNKALGAPIEKTISKAKGQPREPQVYTLPPSRDELTKNQVSLTCLVKGFYPSDIAVEWESNGQPENNYKTTPPVLDSDGSFFLYSRLTVDKSRWQQGNVFSCSVMHEALHNHYTQKSLSLSPGK,0.0993,< 0.1,8,7.35,62.4,> 994
DC00080 (other) chain 1: QVQLVESGGGLVQAGGSLRLSCAASGGTFRTRNMGWFRRAPGKEREFVAAVSWNVDNKLYADSVKGRFTISRDNGRNMVYLQMNSLKPEDTAVYYCAADNIPLSSDMRPTATEYDYWGQGTQVTVSSDKTHTCPPCPAPEAAGGPSVFLFPPKPKDTLMISRTPEVTCVVVDVSHEDPEVKFNWYVDGVEVHNAKTKPREEQYNSTYRVVSVLTVLHQDWLNGKEYKCKVSNKALGAPIEKTISKAKGQPREPQVYTLPPSRDELTKNQVSLTCLVKGFYPSDIAVEWESNGQPENNYKTTPPVLDSDGSFLLYSKLTVDKSRWQQGNVFSCSVMHEALHNHYTQKSLSLSPGK chain 2: EVQLVESGGGLVQTGGSLRLSCAASGGTFSRDAMAWFRQVPGKEREFVALISWSGATTNYADSVKGRFAISRDNGKNTVYLQMNRLKPADTAIYYCAADRRPMGSRSYFEPTEYDDWGQGTQVTVSSGGGGSGGGGSGGGGSQVQLVESGGGLVQPGGSLRLSCATSGFTFRNNFMSWVRQAPGKGLEWVSTISYGGESTTYAESVKGRFTISRDNAKNTLYLQMNNLKPEDTAVYYCAKATSYDSIRSGSRGQGTQVTVSSGGGGSGGGGSGGGGSQVQLVESGGGLVQAGGSLTLSCAAPGRTFGTDVVGWFRQAPGKEREFVASISRSGDGIYYDDSVKGRFTISRNNAWNTVNLQMNSLKVEDTAVYYCAAGDGWSTYDYWGQGTQVTVSSGGGGSGGGGSGGGGSDKTHTCPPCPAPEAAGGPSVFLFPPKPKDTLMISRTPEVTCVVVDVSHEDPEVKFNWYVDGVEVHNAKTKPREEQYNSTYRVVSVLTVLHQDWLNGKEYKCKVSNKALGAPIEKTISKAKGQPREPQVYTLPPSRDELTKNQVSLTCLVKGFYPSDIAVEWESNGQPENNYKTTPPVLDSDGSFFLYSRLTVDKSRWQQGNVFSCSVMHEALHNHYTQKSLSLSPGK,0.00648,< 0.1,4,4.42,17.8,> 64.8
DC00081 (other) chain 1: QVQLVESGGGLVQAGGSLRLSCAASGGTFRTRNMGWFRRAPGKEREFVAAVSWNVDNKLYADSVKGRFTISRDNGRNMVYLQMNSLKPEDTAVYYCAADNIPLSSDMRPTATEYDYWGQGTQVTVSSDKTHTCPPCPAPEAAGGPSVFLFPPKPKDTLMISRTPEVTCVVVDVSHEDPEVKFNWYVDGVEVHNAKTKPREEQYNSTYRVVSVLTVLHQDWLNGKEYKCKVSNKALGAPIEKTISKAKGQPREPQVYTLPPSRDELTKNQVSLTCLVKGFYPSDIAVEWESNGQPENNYKTTPPVLDSDGSFLLYSKLTVDKSRWQQGNVFSCSVMHEALHNHYTQKSLSLSPGK chain 2: QVQLVESGGGLVQPGGSLRLSCATSGFTFRNNFMSWVRQAPGKGLEWVSTISYGGESTTYAESVKGRFTISRDNAKNTLYLQMNNLKPEDTAVYYCAKATSYDSIRSGSRGQGTQVTVSSGGGGSGGGGSGGGGSQVQLVESGGGLVQAGGSLTLSCAAPGRTFGTDVVGWFRQAPGKEREFVASISRSGDGIYYDDSVKGRFTISRNNAWNTVNLQMNSLKVEDTAVYYCAAGDGWSTYDYWGQGTQVTVSSGGGGSGGGGSGGGGSEVQLVESGGGLVQTGGSLRLSCAASGGTFSRDAMAWFRQVPGKEREFVALISWSGATTNYADSVKGRFAISRDNGKNTVYLQMNRLKPADTAIYYCAADRRPMGSRSYFEPTEYDDWGQGTQVTVSSGGGGSGGGGSGGGGSDKTHTCPPCPAPEAAGGPSVFLFPPKPKDTLMISRTPEVTCVVVDVSHEDPEVKFNWYVDGVEVHNAKTKPREEQYNSTYRVVSVLTVLHQDWLNGKEYKCKVSNKALGAPIEKTISKAKGQPREPQVYTLPPSRDELTKNQVSLTCLVKGFYPSDIAVEWESNGQPENNYKTTPPVLDSDGSFFLYSRLTVDKSRWQQGNVFSCSVMHEALHNHYTQKSLSLSPGK,0.194,< 0.1,5,13.5,60.9,> 1940
